We go through two substances from patent US9814672B2, “Echogenic vehicle for clinical delivery of plasminogen activator and other fibrin-binding therapeutics to thrombi” (priority 2007, dated 2017).

Usually Kd stands for the constant that tells how readily two partners part at equilibrium.

One test concerns the target T1, fibrin (Homo sapiens, UniProt P02671+P02675+P02679).
T1 construct: were incubated on replicate fibrin pads, prepared in microplate wells; purchased Calbiochem (EMD Biosciences, Inc., La Jolla, Calif.)
T1 sequence (P02671 36-629 limits assumed): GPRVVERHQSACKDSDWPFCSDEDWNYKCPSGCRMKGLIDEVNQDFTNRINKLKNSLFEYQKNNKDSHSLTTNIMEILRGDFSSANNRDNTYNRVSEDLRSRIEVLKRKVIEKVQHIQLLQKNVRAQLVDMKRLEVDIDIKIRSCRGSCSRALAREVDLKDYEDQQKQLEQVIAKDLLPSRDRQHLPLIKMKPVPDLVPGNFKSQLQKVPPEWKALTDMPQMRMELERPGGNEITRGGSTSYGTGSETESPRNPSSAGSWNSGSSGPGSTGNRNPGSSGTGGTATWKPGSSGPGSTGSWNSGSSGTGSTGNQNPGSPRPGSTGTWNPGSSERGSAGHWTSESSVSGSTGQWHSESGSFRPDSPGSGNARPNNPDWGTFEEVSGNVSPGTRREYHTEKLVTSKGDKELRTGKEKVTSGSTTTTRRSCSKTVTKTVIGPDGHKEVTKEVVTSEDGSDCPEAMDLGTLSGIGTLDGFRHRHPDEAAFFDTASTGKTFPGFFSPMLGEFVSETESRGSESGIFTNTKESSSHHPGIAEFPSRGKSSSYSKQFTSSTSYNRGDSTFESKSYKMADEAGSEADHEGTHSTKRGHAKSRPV
T1 sequence (P02675 45-491 limits assumed): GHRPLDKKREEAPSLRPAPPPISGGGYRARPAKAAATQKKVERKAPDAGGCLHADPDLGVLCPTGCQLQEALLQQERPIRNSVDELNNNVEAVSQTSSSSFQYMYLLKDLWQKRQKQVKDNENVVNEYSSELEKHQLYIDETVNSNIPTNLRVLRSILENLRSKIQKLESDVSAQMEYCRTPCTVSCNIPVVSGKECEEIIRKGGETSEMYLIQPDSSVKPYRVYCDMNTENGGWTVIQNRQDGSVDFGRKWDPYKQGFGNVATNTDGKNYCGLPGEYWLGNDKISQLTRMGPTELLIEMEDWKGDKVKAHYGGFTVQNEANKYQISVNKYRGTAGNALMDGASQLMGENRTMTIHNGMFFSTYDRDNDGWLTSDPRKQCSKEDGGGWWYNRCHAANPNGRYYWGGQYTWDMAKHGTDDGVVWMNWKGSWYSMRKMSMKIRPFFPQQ
T1 sequence (P02679 27-437 isoform P02679-2 limits assumed): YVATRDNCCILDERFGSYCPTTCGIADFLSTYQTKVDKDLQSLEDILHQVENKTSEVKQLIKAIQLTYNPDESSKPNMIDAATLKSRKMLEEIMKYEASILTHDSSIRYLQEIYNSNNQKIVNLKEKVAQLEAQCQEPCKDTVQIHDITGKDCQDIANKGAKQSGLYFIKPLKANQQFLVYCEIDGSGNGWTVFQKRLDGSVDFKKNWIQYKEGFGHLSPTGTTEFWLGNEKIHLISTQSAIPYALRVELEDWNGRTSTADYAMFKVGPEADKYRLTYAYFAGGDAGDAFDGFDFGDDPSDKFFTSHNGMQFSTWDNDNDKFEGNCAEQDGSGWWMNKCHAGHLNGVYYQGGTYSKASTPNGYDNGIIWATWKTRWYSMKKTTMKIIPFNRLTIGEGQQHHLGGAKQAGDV
Kind of test: Two-stage fibrin pad ELISA, Scatchard and van't Hoff analysis. Conditions: undiluted fresh-frozen rabbit serum, 37° C.; read-out: binding affinity (KD) in serum. (ELISA stands for enzyme-linked immunosorbent assay.)

Test [1] in a line: tPA enzyme activity after PPACK inactivation, paranitroanilide-substrate method. Format: biochemical. Conditions: S.E., n=3. Here is the method:
Reconstituted tPA was incubated with a fivefold molar excess of PPACK in 0.2 M L-arginine in 0.05M phosphate buffer, pH 7.2, with 0.01% Tween 20 for 1 hour at room temperature, followed by dialysis against reaction buffer to remove unreacted PPACK. A control preparation was carried through the procedure without PPACK and all procedures involving PPACK were protected from light. Enzyme activity in PPACK-treated and control tPA preparations was measured with a […] paranitroanilide-substrate method (Ranby and Wallen, 1981).

In another test the test system is occluded femoral artery. Conditions: tPA infusion with transcutaneous ultrasound; cited from earlier work.
The next test concerns the target T2, fibrinogen αC domains (Homo sapiens, UniProt P02671).
T2 sequence (P02671 240-629 limits assumed): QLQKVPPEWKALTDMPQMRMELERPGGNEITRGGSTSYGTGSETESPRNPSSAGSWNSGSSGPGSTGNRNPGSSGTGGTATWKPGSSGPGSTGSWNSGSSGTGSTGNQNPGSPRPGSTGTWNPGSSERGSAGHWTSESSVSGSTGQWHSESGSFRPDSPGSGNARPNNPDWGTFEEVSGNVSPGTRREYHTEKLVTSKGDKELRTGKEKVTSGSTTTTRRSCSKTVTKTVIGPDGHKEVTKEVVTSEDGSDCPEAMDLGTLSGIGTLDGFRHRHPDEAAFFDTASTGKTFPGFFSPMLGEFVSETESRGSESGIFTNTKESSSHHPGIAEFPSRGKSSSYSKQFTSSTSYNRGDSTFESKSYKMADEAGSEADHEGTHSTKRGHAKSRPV
Particulars: Tsurupa and Medved 2001; cited from earlier work.

In the case of “tPA(P): Human recombinant tPA (Activase®) irreversibly inhibited with D-phe-L-pro-L-arg-chloromethyl ketone (PPACK)”, in the test with fibrin, the Kd amounted to 9.52 nM. The “Percent Starting Activity” value in test [1] amounted to 4.7 ± 2.9%.

In the case of “tPA: Recombinant tissue-plasminogen activator (Activase®, Genentech Inc.), used as the thrombolytic agent [reference compound]”, the “decrease in time for recanalization” value in the test with occluded femoral artery is given as 80%. The Kd in the test with fibrinogen αC domains is 33 ± 5 nM.
